Assay [1] addresses full-length strep-tagged POLD3 (human) (UniProt Q15054). The experiment in a line: BLI; POLD3 immobilised on Streptavidin (SAX) biosensors, BLItz, 1x PBS and 0.02% Tween.
For a further assay, the target named is GST-tagged MCM2 (human) (UniProt P49736). The experiment in a line: BLI; MCM2 immobilised on Anti-GST biosensors, BLItz, 1x PBS and 0.02% Tween; analyte 0-50.0 nM.

This note sets out measurements from article PMC13156308.

pKd: −log10 of the molar value.

full-length strep-tagged POLD3 (human), sequence (Q15054 whole entry): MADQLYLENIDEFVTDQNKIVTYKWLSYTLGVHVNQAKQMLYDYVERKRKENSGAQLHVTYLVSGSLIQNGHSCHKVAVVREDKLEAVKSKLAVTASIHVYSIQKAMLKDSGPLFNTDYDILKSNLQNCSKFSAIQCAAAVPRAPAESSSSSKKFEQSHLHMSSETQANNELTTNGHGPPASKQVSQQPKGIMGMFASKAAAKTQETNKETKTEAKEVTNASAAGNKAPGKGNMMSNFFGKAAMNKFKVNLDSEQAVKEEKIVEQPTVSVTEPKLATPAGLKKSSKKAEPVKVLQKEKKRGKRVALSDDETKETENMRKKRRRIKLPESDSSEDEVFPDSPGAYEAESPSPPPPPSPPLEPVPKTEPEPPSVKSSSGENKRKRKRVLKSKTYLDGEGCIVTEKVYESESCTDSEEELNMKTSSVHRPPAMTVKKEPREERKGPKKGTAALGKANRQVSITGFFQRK
GST-tagged MCM2 (human), sequence (P49736 whole entry): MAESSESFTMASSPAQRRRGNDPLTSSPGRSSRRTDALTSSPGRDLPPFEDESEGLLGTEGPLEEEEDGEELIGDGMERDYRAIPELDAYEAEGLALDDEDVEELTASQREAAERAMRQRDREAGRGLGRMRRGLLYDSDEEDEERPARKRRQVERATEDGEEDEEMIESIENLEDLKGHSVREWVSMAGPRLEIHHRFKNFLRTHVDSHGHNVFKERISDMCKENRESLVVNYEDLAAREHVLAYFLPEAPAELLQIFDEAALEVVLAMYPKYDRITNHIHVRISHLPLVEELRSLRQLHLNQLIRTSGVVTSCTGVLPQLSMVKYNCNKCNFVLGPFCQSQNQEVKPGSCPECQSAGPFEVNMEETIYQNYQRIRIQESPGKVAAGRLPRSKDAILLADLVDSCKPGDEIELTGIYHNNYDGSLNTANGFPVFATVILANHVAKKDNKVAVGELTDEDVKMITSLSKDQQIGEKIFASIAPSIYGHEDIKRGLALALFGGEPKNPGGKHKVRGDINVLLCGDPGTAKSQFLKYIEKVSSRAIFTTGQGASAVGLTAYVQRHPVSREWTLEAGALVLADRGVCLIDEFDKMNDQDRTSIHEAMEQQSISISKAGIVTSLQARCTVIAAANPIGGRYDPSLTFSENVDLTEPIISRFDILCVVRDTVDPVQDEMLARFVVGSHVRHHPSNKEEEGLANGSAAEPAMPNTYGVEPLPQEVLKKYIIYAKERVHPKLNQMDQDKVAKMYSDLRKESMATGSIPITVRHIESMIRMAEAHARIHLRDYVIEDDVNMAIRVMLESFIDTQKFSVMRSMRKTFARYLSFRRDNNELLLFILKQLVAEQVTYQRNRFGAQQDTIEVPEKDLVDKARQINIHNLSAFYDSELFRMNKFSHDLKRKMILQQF

The pKd is −log10 of the Kd, conventionally taken in molar units. A high value points to a small Kd. Consider “histone (H3.1-H4)2 tetramer (from UniProt P68431 1-136; P62805 1-103) (complex; other documents disagree on this pair)”, for which the negative logarithm of the Kd (pKd) in assay [1] is 8.57; in the assay with GST-tagged MCM2 (human), 8.66.
